From article PMC6937582, “Human leukocyte antigen (HLA) class II peptide flanking residues tune the immunogenicity of a human tumor-derived epitope” (The Journal of Biological Chemistry, 2019)

Legend:
[1] = molecular target: HLA-DR1 (HLA-DRα*0101 and HLA-DRβ1*0101); experiment: in vitro competition assay (HLA-DR1 peptide binding); details: chain shown with the change
[2] = molecular target: HLA-DR1 (HLA-DRα*0101 and HLA-DRβ1*0101) (human); experiment: ELISA; competitive peptide-binding assay: test peptide 10^-4-10^-10 M against 4.5 nM biotinylated CLIP 99-117 marker peptide for 0.1 μg refolded HLA-DR1-CLIP 105-117; 20 mM MES, 140 mM NaCl, 0.02% NaN3, pH 5, overnight at 37 °C; HLA-DR1 captured on anti-DR L243, bound marker detected with streptavidin-HRP; % competitive inhibition, four-parameter fit

Binder	IC50 [1] [nM]	IC50 [2] [nM]
FARRPPLAELAAANLSGSRL [5T4_(111–130) 20-mer peptide L7A]	725	
FARRPPLAELAALNLSRSRL [5T4_(111–130) 20-mer peptide G11R]	255	
FARRPPLAELAALALSGSRL [5T4_(111–130) 20-mer peptide N8A]	144	
FARRPPLAELAALNLSGSRL [5T4_(111–130) 20-mer peptide]		176
